For one assay, the target named is FLAG-tagged KSHV ORF33. Kind of assay: ELISA. To be noted: parent: est. 0.68; read off a plot. Background: In an ELISA, binding on a coated surface is turned into a signal by an enzyme label.
Chain of FLAG-tagged KSHV ORF33 (Kaposi sarcoma-associated herpesvirus (KSHV)) (F5HEF2 whole entry): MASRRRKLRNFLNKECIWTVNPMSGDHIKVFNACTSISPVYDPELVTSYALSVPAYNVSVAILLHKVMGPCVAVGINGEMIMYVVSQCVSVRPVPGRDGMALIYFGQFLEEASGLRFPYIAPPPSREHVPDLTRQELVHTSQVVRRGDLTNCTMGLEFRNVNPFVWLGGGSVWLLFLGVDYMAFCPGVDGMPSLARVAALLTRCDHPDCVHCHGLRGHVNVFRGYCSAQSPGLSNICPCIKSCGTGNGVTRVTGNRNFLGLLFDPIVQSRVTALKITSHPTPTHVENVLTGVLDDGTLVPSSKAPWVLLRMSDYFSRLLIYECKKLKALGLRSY
Take “GST-tagged KSHV ORF45-C19 (from UniProt F5HDE4) L406A”: the response is 0.44 Absorbance.

Take “GST-tagged KSHV ORF45-C19 (from UniProt F5HDE4) W403A”: the response was determined as 0.07 Absorbance.

On to “GST-tagged KSHV ORF45-C19 (from UniProt F5HDE4) N402A”, for which the response was determined as 0.69 Absorbance.

Consider “GST-tagged KSHV ORF45-C19 (from UniProt F5HDE4) C396A”, for which the response amounted to 0.058 Absorbance.

With “GST-tagged KSHV ORF45-C19 (from UniProt F5HDE4) P393A”, the response was 0.42 Absorbance.

In the case of “GST-tagged KSHV ORF45-C19 (from UniProt F5HDE4) D407A”, the response turned out to be 0.69 Absorbance.

For the substance “GST-tagged KSHV ORF45-C19 (from UniProt F5HDE4) W405A”, the response amounted to 0.058 Absorbance.

On to “GST-tagged KSHV ORF45-C19 (from UniProt F5HDE4) L395A”, for which the response was found to be 0.21 Absorbance.

“GST-tagged KSHV ORF45-C19 (from UniProt F5HDE4) G397A”: the response was found to be 0.19 Absorbance.

For the substance “GST-tagged KSHV ORF45-C19 (from UniProt F5HDE4) P394A”, the response was found to be 0.058 Absorbance.

On to “GST-tagged KSHV ORF45-C19 (from UniProt F5HDE4) P404A”, for which the response was 0.09 Absorbance.

Turning to “GST-tagged KSHV ORF45-C19 (from UniProt F5HDE4) T392A”, the response stood at 0.085 Absorbance.

On to “GST-tagged KSHV ORF45-C19 (from UniProt F5HDE4) Y401A”, for which the response was 0.058 Absorbance.

Another assay addresses FLAG-tagged KSHV ORF33 (Kaposi sarcoma-associated herpesvirus (KSHV)).
Assay: not given
Details: not given
In turn, “TAT-C19 peptide (from UniProt F5HDE4 389-407)” gave a yield of extracellular KSHV genomes (qPCR) from induced iSLK.BAC16 cells treated with the peptide, up to 200 uM, 5 days; the peptide blocks ORF45-ORF33 of 34.1 µM.

(Values after article PMC8472245.)
